System: BoHV-1 whole virus (purified virion) (Bovine herpesvirus 1 (BK1952, CVCC; Methods also says field isolate from China))
Experiment: ELONA

How did the Kd turn out when “GCTGCAATACTCATGGACAGGGCGGCGGGGTGGGGTGGGCGGTTTGATTCCCATGGGTGCGTCTGGAGTACGACCCTGAA [IBRV-A4]” was run?
The Kd was 3.52 nM.
